Assay results from patent US20100260765A1 (AstraZeneca / MedImmune, published 2010).

B1: 32F4 (antibody, V domains shown)
VH: QLQLQESGPGLVKPSGTLSLSCTVSGGSISSRSDYWGWIRQPPGKGLEWIGTIYYSGNTFYNPSLKSRVTISVDTSKKQFSLKLSSVTAADTAVYYCARQQLVLYYFDYWGQGTLVTVSS
VL: EIVLTQSPGTLSLSPGERATLSCRTSQSVSSSYLAWYQQKPGQAPRLLIYGASSRATGVPDRFSGSGSGTDFSLTISRLEPEDFAVYYCQQYGSSPPLTFGGGTKVEIK
notes: Fully human monoclonal antibody from a XenoMouse hybridoma (IgG2 or IgG4 strain), purified
B2: 21H6 (antibody, V domains shown)
VH: QVQLVESGGGLVKPGGSLRLSCAASGFTFSDYYMSWIRQAPGKGLEWVSYISNSGITIYYADSVKGRFTISRDNAKNSLYLQMNSLRAGDTAVYYCAREEWYSSRWYRNFDYWGQGTLVTVSS
VL: DIQMTQFSSSLSASVGDRVTITCRASQSISRYLNWYQQKPGKAPKLLIYAASSLQSGVPSRFNGSGSGTDFTLTISSLQPEDFATYYCQQSYSAPLTFGGGTKVEIK
notes: Fully human monoclonal antibody from a XenoMouse hybridoma, purified

Key:
[1] = molecular target: T1, human KDR (human, UniProt P35968 20-1356); test: cell-based or functional assay
T1 sequence (P35968 20-1356): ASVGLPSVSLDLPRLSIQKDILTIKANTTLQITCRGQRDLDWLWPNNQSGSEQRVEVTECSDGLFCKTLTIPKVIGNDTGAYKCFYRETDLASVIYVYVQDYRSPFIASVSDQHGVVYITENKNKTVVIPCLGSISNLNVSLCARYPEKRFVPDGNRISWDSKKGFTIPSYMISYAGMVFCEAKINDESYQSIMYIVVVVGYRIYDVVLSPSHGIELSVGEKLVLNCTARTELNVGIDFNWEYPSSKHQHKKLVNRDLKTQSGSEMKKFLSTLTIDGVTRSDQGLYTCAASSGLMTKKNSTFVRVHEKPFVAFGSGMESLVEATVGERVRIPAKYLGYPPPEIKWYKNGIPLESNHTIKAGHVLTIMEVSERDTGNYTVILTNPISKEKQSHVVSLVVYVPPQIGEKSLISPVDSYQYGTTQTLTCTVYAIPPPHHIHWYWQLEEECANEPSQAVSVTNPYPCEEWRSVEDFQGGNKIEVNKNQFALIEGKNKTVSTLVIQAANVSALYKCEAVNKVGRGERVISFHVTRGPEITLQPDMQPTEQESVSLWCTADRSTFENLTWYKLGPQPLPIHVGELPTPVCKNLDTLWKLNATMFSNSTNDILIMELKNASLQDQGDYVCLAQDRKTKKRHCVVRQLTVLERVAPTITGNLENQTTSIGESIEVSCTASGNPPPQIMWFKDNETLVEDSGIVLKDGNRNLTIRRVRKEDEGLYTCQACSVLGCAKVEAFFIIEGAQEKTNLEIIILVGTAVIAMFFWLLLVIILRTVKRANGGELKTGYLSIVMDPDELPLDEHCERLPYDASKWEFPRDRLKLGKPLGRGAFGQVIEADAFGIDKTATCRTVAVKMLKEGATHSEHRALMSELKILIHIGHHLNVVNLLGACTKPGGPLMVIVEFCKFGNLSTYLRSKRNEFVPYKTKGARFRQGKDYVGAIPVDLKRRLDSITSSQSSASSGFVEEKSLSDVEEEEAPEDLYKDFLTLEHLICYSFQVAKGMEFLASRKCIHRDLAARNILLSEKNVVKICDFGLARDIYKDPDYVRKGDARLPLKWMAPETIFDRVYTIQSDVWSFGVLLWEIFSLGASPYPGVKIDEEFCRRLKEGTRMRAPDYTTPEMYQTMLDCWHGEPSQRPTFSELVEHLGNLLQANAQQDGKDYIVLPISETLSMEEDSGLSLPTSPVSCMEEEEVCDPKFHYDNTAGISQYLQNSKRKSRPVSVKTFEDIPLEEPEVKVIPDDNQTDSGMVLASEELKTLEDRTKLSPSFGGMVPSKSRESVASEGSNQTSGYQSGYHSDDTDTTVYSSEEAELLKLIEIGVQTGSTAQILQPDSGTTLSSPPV

[2] = molecular target: T1, human KDR; test: cell-based or functional assay; remark: listed apart in the source
[3] = molecular target: T1, human KDR; test: cell-based or functional assay; remark: listed apart in the source
[4] = molecular target: T2, mouse KDR (Flk-1)/Fc (Cat. #443-KD/CF, R&D Systems, Inc.) (mouse, UniProt P35918 20-762); test: ELISA, Flk-1 coat 5 ug/mL, antibody 1 ug/mL
T2 construct: Bought reagent; also called mouse VEGFR2; KDR mouse ortholog; not shown: Fc of the bought fusion protein
T2 sequence (P35918 20-762 limits assumed): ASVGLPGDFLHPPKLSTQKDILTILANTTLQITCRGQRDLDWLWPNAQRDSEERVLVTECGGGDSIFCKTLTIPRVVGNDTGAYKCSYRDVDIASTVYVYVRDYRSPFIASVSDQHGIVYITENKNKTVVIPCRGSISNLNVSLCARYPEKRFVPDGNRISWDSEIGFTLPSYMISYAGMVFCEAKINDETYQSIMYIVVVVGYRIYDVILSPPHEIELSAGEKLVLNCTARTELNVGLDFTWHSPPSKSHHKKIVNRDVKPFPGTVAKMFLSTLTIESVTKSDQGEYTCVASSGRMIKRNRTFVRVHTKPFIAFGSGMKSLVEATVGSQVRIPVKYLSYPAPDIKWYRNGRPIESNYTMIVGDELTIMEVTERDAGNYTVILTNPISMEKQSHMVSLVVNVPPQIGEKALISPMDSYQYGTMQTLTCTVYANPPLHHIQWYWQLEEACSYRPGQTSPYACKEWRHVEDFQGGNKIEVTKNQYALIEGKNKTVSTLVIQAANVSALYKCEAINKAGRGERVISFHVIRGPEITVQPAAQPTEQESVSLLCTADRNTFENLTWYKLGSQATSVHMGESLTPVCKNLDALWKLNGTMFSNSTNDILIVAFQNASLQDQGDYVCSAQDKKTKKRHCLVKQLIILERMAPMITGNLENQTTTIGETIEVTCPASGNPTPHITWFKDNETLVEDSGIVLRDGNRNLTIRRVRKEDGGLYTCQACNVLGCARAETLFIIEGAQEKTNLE
Protocol: (§1) The cross-reactivity of purified antibodies was tested against KDR mouse ortholog KDR mouse ortholog (mouse VEGFR2, or Flk-1) and human VEGFR1 (Flt-1). The ability of the antibodies to bind soluble KDR Ig4-7 domain and to the entire KDR extracellular domain (ECD) was also measured.
(§2) Cross-reactivity experiments were carried out and measured using an ELISA based assay as described in Example 6. […] Antibody controls included IgG1 and IgG4 (Sigma-Aldrich, Cat. #15154 and #14639, respectively).

[5] = molecular target: T2, mouse KDR (Flk-1)/Fc (Cat. #443-KD/CF, …); test: ELISA, Flk-1 coat 5 ug/mL, antibody 0.1 ug/mL
Protocol: as §1, §2

[6] = molecular target: T3, whole KDR-ECD (Cat. # 676490, Calbiochem) (human, UniProt P35968 20-764); test: ELISA, KDR-ECD coat 5 ug/mL, antibody 1 ug/mL
T3 construct: extracellular domain; Bought soluble protein; also called soluble KDR; VEGF Receptor 2 D1-7
T3 sequence (P35968 20-764): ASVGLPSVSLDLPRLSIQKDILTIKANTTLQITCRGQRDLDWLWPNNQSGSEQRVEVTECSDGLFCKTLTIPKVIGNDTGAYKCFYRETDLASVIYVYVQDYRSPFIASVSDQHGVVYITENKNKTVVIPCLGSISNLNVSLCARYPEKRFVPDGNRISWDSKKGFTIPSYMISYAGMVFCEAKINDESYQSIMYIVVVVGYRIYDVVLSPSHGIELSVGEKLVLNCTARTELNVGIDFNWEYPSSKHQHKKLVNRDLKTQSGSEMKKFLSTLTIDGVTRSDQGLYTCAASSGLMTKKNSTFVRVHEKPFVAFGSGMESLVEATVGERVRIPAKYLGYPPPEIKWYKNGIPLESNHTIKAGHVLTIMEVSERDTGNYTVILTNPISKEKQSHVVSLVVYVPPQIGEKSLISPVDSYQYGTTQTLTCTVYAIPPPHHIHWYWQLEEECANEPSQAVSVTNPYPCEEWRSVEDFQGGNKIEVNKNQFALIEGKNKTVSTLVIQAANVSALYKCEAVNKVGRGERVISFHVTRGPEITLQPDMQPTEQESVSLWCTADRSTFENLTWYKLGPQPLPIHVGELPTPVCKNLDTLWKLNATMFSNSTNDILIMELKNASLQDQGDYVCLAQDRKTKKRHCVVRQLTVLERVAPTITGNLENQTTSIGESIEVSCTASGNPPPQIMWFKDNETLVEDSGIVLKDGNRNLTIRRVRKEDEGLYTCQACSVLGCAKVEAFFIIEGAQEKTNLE
Protocol: as §1, §2

[7] = molecular target: T2, mouse KDR (Flk-1)/Fc (Cat. #443-KD/CF, …); test: ELISA, Flk-1 coat 5 ug/mL, antibody 0.01 ug/mL
Protocol: as §1, §2

[8] = molecular target: T3, whole KDR-ECD (Cat. # 676490, …); test: ELISA, KDR-ECD coat 5 ug/mL, antibody 0.1 ug/mL
Protocol: as §1, §2

[9] = molecular target: T3, whole KDR-ECD (Cat. # 676490, …); test: ELISA, KDR-ECD coat 5 ug/mL, antibody 0.01 ug/mL
Protocol: as §1, §2

[10] = molecular target: T4, soluble KDR Ig4-7 domain (human, UniProt P35968 328-764); test: ELISA, KDR Ig4-7 coat (1:1 diln.), antibody 1 ug/mL
T4 construct: domain: Ig4-7 domain; also called b-KDRIg4-7-myc-his; Ig4-7 domain of KDR; not shown: myc-his tag of the pSecTag construct
T4 sequence (P35968 328-764): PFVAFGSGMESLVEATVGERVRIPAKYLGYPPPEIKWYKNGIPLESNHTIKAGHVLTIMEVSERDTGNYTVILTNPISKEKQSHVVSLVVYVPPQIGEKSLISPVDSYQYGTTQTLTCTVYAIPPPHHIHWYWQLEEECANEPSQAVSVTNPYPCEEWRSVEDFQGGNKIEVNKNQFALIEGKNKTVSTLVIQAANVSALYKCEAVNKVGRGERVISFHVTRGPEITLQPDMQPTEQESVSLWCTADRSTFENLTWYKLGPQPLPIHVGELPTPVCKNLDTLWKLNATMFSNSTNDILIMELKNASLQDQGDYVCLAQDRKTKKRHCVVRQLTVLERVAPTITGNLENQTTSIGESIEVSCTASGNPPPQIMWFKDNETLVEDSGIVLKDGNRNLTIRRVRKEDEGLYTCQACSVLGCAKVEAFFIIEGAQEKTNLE
Protocol: as §1, §2

[11] = molecular target: T4, soluble KDR Ig4-7 domain; test: ELISA, KDR Ig4-7 coat (1:1 diln.), antibody 0.1 ug/mL
Protocol: as §1, §2

[12] = molecular target: T5, cynomolgus KDR (cynomolgus monkey, UniProt A0A2K5VE63 20-1356); test: FACS on Cyno KDR/293T transfectants, antibody 5 ug/mL
T5 construct: whole, on cells; also called Cyno KDR
T5 sequence (A0A2K5VE63 entry or part of it): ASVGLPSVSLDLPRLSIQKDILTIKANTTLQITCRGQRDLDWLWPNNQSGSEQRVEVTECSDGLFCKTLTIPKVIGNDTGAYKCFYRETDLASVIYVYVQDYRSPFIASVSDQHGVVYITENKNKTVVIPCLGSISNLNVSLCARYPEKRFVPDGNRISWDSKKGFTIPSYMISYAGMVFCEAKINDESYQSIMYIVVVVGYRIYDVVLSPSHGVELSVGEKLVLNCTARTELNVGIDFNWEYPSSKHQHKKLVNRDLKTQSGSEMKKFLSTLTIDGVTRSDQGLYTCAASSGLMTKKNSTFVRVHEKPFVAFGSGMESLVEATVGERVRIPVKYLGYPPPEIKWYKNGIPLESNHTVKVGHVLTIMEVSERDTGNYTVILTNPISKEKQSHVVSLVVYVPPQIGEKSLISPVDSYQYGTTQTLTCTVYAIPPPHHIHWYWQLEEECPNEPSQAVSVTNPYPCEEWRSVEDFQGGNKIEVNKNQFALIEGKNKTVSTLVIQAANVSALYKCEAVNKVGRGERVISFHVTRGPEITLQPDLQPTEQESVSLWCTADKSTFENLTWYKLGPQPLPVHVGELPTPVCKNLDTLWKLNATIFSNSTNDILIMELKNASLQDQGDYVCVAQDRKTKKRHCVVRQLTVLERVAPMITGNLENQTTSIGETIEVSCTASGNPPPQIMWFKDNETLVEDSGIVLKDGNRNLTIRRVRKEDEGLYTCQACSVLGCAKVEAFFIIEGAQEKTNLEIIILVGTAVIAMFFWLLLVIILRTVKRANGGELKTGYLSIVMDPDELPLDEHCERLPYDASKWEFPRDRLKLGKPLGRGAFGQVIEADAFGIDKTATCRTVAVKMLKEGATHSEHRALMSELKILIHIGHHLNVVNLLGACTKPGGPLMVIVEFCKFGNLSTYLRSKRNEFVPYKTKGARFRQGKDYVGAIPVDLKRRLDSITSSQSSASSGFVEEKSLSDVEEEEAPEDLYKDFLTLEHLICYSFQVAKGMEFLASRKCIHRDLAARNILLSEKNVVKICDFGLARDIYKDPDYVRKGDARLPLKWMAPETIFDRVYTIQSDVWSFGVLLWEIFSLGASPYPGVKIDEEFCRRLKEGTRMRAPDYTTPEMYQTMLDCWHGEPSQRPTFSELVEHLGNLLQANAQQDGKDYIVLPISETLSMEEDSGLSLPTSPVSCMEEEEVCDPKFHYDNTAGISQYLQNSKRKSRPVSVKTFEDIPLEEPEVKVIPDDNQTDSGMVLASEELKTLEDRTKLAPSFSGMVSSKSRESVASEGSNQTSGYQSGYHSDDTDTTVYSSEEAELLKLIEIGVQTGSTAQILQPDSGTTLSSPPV
Protocol: The binding of purified antibodies to cell-bound cynomolgus KDR (with parental cells as negative control) was tested by FACS analysis in this assay.
Cynomolgus KDR was cloned in 3 pieces. One piece was PCR amplified from cynomolgus lung cDNA, and the remaining two pieces were PCR amplified from cynomolgus kidney cDNA. The three PCR products were inserted into pCR3.1 Bid vector. […] Transfected cells were seeded at 50,000 cells/well and incubated with 5 μg/mL of candidate antibody for one hour at 4° C. The cells were then washed and incubated with secondary antibody (Cy5-conjugated goat anti-human antibody, or Cy5-conjugated rabbit anti-goat antibody, plus 7-Amino-Actinomycin (7AAD)) for 15 minutes at 4° C. Binding between cynomolgus KDR and purified antibody was detected by FACS analysis.

[13] = molecular target: T4, soluble KDR Ig4-7 domain; test: ELISA, KDR Ig4-7 coat (1:1 diln.), antibody 0.01 ug/mL
Protocol: as §1, §2

[14] = molecular target: T1, human KDR; test: FACS titration of purified antibody on HUVEC cells (FACS Kd)
Protocol: The binding affinities of the purified antibodies for endogenously-expressed KDR in HUVEC cells was measured. HUVEC cells were seeded at 150,000 cells/well and incubated with titrations of purified antibody for 4 hours at 4° C. The cells were then washed and incubated with goat anti-human IgG-Fc-Cy5+5 μg/mL 7-Amino-Actinomycin (7AAD) for 30 minutes at 4° C. Bound KDR was detected using FACS analysis.

[15] = molecular target: T1, human KDR; test: FACS competition on 293T/human KDR transfectants; antibody 5 ug/mL first, then competitor VEGF165 50 ng/mL; bound VEGF165 detected
Protocol: (§3) Transfected cells were then seeded at 50,000 cells/well and incubated with 5 μg/mL of candidate antibody for one hour at 4° C. […] After washing, the cells were incubated with Cy5-conjugated rabbit anti-goat antibody plus 7AAD for 15 minutes at 4° C.

[16] = molecular target: T1, human KDR; test: FACS competition on 293T/human KDR transfectants; antibody 5 ug/mL first, then competitor VEGF165 50 ng/mL; inhibition of VEGF binding
Protocol: as §3

Row | Binder | KDR tyrosine phosphorylation in HUVEC, EC50 (nM), Average [1] [nM] | KDR tyrosine phosphorylation in HUVEC, EC50 (nM), N = 1 [1] [nM] | KDR tyrosine phosphorylation in HUVEC, EC50 (nM), N = 2 [1] [nM] | KDR tyrosine phosphorylation in HUVEC, Maximum Inhibition at 100 nM (% Inhibition), Average [1] [%] | KDR tyrosine phosphorylation in HUVEC, Maximum Inhibition at 100 nM (% Inhibition), N = 1 [1] [%] | KDR tyrosine phosphorylation in HUVEC, Maximum Inhibition at 100 nM (% Inhibition), N = 2 [1] [%] | HUVEC survival, Maximum Inhibition at 50 nM (% Inhibition), Average [2] [%] | HUVEC survival, Maximum Inhibition at 50 nM (% Inhibition), N = 1 [2] [%] | HUVEC survival, Maximum Inhibition at 50 nM (% Inhibition), N = 2 [2] [%] | 6-keto Prostaglandin F1α release, EC50 (nM), Average [3] [nM] | 6-keto Prostaglandin F1α release, EC50 (nM), N = 1 [3] [nM] | 6-keto Prostaglandin F1α release, EC50 (nM), N = 2 [3] [nM] | 6-keto Prostaglandin F1α release, Maximum Inhibition (% Inhibition), Average [3] [%] | 6-keto Prostaglandin F1α release, Maximum Inhibition (% Inhibition), N = 1 (200 nM) [3] [%] | 6-keto Prostaglandin F1α release, Maximum Inhibition (% Inhibition), N = 2 (333 nM) [3] [%] | ELISA reading [6] | ELISA reading [8] | ELISA reading [9] | ELISA reading [10] | ELISA reading [11] | also measured
1 | B1 | 1.8 | 1.7 | 1.9 | 75 | 71 | 79 | 92 | 91 | 94 | 4.5 | 4.4 | 4.6 | 48 | 42 | 54 | 1.93 | 0.132 | 0.09 | 0.114 | 0.079 | ELISA reading [4]: 2.62; ELISA reading [5]: 2; ELISA reading [7]: 0.802; FACS Geometric Mean Fluorescence [12]: 105; ELISA reading [13]: 0.076; Kd [14]: 1.8 nM; FACS Geometric Mean Fluorescence (bound VEGF165) [15]: 112; % Inhibition [16]: 14%
2 | B2 | 6.9 | 7.1 | 6.7 | 82 | 81 | 84 | 96 | 96 | 96 | 6.3 | 7.3 | 5.4 | 77 | 80 | 75 | 1.46 | 0.139 | 0.087 | 0.087 | 0.074 | FACS Geometric Mean Fluorescence [12]: 102; ELISA reading [13]: 0.074; Kd [14]: 17.9 nM; FACS Geometric Mean Fluorescence (bound VEGF165) [15]: 133; % Inhibition [16]: -3%
